Measurements as given in patent US20180312587A1.

Legend:
human SIRPγ (human) [1] = biological target: human SIRPγ (human) (UniProt Q9P1W8); assay: CELISA, CHO-K1 transfectants; n = 1
hSIRPαV1(P74A) (human) [2] = biological target: hSIRPαV1(P74A) (human) (UniProt P78324); assay: CELISA, CHO-K1 transfectants
human SIRPβ1 (human) [3] = biological target: human SIRPβ1 (human) (UniProt O00241); assay: CELISA, CHO-K1 transfectants
[4] = biological target: human SIRPα variant 1 (human) (UniProt P78324); assay: CELISA, CHO-K1 transfectants
Chain of human SIRPα variant 1 (human) (P78324 31-504 limits assumed, stated change not applied): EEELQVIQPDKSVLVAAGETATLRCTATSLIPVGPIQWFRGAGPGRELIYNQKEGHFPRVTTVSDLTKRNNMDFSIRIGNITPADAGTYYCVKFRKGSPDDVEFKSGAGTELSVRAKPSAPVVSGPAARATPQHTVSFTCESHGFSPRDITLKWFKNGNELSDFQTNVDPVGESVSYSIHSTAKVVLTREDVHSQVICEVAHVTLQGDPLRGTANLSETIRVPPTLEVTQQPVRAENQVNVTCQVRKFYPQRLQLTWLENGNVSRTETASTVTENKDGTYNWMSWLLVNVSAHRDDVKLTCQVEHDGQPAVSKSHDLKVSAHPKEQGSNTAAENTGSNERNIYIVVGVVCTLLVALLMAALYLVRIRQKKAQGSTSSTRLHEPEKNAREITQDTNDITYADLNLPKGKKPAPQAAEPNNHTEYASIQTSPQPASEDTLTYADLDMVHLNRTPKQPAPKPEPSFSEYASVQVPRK

human SIRPγ (human) [5] = biological target: human SIRPγ (human) (UniProt Q9P1W8); assay: CELISA, CHO-K1 transfectants; extrapolated
[6] = biological target: hSIRPβ1 transcript variant 3/hSIRPβL (human) (UniProt Q5TFQ8); assay: CELISA, CHO-K1 transfectants; extrapolated
Chain of hSIRPβ1 transcript variant 3/hSIRPβL (human) (Q5TFQ8 30-398 limits assumed, change not shown): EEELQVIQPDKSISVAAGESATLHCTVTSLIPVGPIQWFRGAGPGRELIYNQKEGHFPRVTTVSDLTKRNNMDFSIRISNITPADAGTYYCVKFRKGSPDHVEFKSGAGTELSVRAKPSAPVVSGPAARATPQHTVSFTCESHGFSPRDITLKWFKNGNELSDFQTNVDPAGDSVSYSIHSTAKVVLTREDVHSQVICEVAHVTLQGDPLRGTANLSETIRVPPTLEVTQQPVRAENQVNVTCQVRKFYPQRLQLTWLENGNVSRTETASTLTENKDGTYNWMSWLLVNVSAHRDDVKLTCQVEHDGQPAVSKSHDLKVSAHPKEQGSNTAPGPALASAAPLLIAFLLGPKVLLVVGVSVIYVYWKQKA

human SIRPβ1 (human) [7] = biological target: human SIRPβ1 (human) (UniProt O00241); assay: CELISA, CHO-K1 transfectants; extrapolated
[8] = biological target: human SIRPα variant 2 (human) (UniProt P78324); assay: CELISA, CHO-K1 transfectants; extrapolated
Chain of human SIRPα variant 2 (human) (P78324 other isoform, or with tags, fused parts or gaps mutant limits assumed): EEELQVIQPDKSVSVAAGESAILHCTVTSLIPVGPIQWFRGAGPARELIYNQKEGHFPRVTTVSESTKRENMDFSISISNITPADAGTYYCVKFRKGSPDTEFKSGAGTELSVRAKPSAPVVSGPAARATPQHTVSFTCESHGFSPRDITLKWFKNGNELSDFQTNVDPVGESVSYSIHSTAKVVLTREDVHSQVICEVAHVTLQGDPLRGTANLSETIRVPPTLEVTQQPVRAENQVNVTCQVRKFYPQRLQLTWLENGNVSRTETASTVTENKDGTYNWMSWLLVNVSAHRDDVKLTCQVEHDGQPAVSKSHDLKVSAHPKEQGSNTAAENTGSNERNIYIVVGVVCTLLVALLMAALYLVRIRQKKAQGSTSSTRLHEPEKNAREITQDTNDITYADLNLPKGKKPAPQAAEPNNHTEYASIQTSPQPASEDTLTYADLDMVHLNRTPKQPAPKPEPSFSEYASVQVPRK

[9] = biological target: human SIRPα variant 1 (human) (UniProt P78324); assay: CELISA, CHO-K1 transfectants; extrapolated
human SIRPγ (human) [10] = biological target: human SIRPγ (human) (UniProt Q9P1W8); assay: CELISA, CHO-K1 transfectants
[11] = biological target: human SIRPα variant 2 (human) (UniProt P78324); assay: CELISA, CHO-K1 transfectants
[12] = biological target: hSIRPβ1 transcript variant 3/hSIRPβL (human) (UniProt Q5TFQ8); assay: CELISA, CHO-K1 transfectants
human SIRPβ1 (human) [13] = biological target: human SIRPβ1 (human) (UniProt O00241); assay: CELISA, CHO-K1 transfectants; remark: listed apart in the source
[14] = biological target: human SIRPα variant 1 (human) (UniProt P78324); assay: CELISA, CHO-K1 transfectants; remark: listed apart in the source
[15] = biological target: hSIRPαV9 (NA18943_V9) (human) (UniProt P78324); assay: CELISA, CHO-K1 transfectants; average of two experiments
Chain of hSIRPαV9 (NA18943_V9) (human) (P78324 31-504 G109S limits assumed): as the sequence (P78324 31-504 limits assumed, stated change not applied) above, with G79S counted along it

[16] = biological target: hSIRPαV6 (NA18507_V6) (human) (UniProt P78324); assay: as above
[17] = biological target: hSIRPαV3 (NA07056_V3) (human) (UniProt P78324); assay: as above
Chain of hSIRPαV3 (NA07056_V3) (human) (P78324 other isoform, or with tags, fused parts or gaps limits assumed): as the sequence (P78324 other isoform, or with tags, fused parts or gaps mutant limits assumed) above, with H24L counted along it

[18] = biological target: hSIRPαV4 (NA11832_V4) (human) (UniProt P78324); assay: as above
Chain of hSIRPαV4 (NA11832_V4) (human) (P78324 other isoform, or with tags, fused parts or gaps limits assumed): as the sequence (P78324 31-504 limits assumed, stated change not applied) above, with E3G, L14S, T20S, T22I, R24H counted along it

[19] = biological target: hSIRPαV8 (NA18570_V8) (human) (UniProt P78324); assay: as above
Chain of hSIRPαV8 (NA18570_V8) (human) (P78324 other isoform, or with tags, fused parts or gaps limits assumed): as the sequence (P78324 other isoform, or with tags, fused parts or gaps mutant limits assumed) above, with S14L, S20T, I22T, H24R, V27A counted along it

[20] = biological target: human SIRPα variant 2 (human) (UniProt P78324); assay: as above
[21] = biological target: human SIRPα variant 1 (human) (UniProt P78324); assay: as above
[22] = biological target: hSIRPαV5 (NA18502_V5) (human) (UniProt P78324); assay: as above
hSIRPαV1(P74A) (human) [23] = biological target: hSIRPαV1(P74A) (human) (UniProt P78324); assay: CELISA, CHO-K1 transfectants, point mutant study
[24] = biological target: human SIRPα variant 1 (human) (UniProt P78324); assay: CELISA, CHO-K1 transfectants, point mutant study
hSIRP-VβC1γC2β (human) = hSIRP-VβC1γC2β (human) (UniProt O00241); assay: CELISA, CHO-K1 transfectants, domain exchange study
Chain of hSIRP-VβC1γC2β (human) (O00241 other isoform, or with tags, fused parts or gaps limits assumed): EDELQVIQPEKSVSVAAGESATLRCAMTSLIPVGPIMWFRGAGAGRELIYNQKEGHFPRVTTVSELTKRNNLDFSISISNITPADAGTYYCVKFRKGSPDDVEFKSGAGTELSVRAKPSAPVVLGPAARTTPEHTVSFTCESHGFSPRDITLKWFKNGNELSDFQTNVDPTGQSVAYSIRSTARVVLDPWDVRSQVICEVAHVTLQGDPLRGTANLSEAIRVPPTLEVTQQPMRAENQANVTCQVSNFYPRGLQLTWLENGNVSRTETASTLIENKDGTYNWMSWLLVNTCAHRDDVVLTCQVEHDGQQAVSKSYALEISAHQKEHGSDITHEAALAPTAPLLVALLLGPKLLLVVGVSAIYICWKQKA

hSIRP-VγC1βC2β (human) = hSIRP-VγC1βC2β (human) (UniProt O00241); assay: as above
human SIRPβ1 (human) [25] = biological target: human SIRPβ1 (human) (UniProt O00241); assay: as above
[26] = biological target: human SIRPα variant 2 (human) (UniProt P78324); assay: as above
[27] = biological target: human SIRPα variant 1 (human) (UniProt P78324); assay: as above
hSIRP-VβC1βC2γ (human) = hSIRP-VβC1βC2γ (human) (UniProt O00241); assay: as above
human SIRPβ1 (human) [28] = biological target: human SIRPβ1 (human) (UniProt O00241); assay: CELISA, CHO-K1 transfectants; n = 1
[29] = biological target: human SIRPα variant 2 (human) (UniProt P78324); assay: CELISA, CHO-K1 transfectants; n = 1
[30] = biological target: human SIRPα variant 1 (human) (UniProt P78324); assay: CELISA, CHO-K1 transfectants; n = 1
hSIRPαV1(P74A) (human) [31] = biological target: hSIRPαV1(P74A) (human) (UniProt P78324); assay: CELISA, CHO-K1 transfectants, point mutant study; remark: listed apart in the source
human SIRPβ1 (human) [32] = biological target: human SIRPβ1 (human) (UniProt O00241); assay: CELISA, CHO-K1 transfectants, point mutant study
[33] = biological target: human SIRPα variant 1 (human) (UniProt P78324); assay: CELISA, CHO-K1 transfectants, point mutant study; remark: listed apart in the source
hSIRPα-VαC1αC2β (human) = hSIRPα-VαC1αC2β (human) (UniProt P78324); assay: CELISA, CHO-K1 transfectants, domain exchange study
hSIRPα-VαC1βC2α (human) = hSIRPα-VαC1βC2α (human) (UniProt P78324); assay: as above
hSIRPα-VβC1αC2α (human) = hSIRPα-VβC1αC2α (human) (UniProt P78324); assay: as above
human SIRPβ1 (human) [34] = biological target: human SIRPβ1 (human) (UniProt O00241); assay: as above; remark: listed apart in the source
[35] = biological target: human SIRPα variant 2 (human) (UniProt P78324); assay: as above; remark: listed apart in the source
[36] = biological target: human SIRPα variant 1 (human) (UniProt P78324); assay: as above; remark: listed apart in the source

Chain of human SIRPβ1 (human) (O00241 30-398 limits assumed): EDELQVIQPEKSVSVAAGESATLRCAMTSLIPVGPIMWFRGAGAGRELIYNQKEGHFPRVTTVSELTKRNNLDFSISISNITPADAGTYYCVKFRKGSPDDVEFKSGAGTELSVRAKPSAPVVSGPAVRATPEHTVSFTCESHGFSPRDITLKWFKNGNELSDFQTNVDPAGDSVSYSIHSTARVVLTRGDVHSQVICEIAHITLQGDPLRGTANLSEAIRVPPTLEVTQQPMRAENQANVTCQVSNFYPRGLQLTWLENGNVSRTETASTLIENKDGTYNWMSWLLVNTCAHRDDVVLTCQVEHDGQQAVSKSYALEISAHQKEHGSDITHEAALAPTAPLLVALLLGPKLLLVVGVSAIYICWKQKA
Chain of human SIRPγ (human) (Q9P1W8 29-387 limits assumed): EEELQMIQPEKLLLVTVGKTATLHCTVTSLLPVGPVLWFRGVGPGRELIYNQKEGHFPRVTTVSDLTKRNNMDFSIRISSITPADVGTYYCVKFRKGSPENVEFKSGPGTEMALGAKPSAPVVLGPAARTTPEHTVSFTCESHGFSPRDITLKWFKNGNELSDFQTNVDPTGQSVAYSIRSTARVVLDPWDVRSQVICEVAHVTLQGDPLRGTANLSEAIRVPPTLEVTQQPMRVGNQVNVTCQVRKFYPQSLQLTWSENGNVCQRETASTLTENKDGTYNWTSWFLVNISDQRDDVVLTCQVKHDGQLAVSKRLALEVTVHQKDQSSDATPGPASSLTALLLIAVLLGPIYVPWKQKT
Chain of hSIRPαV1(P74A) (human) (P78324 31-504 P74A limits assumed): as the sequence (P78324 31-504 limits assumed, stated change not applied) above, with P44A counted along it

Substance: anti-hSIRPγ (clone LSB2.20) (antibody)
- EC50 (human SIRPγ (human) [1]): 0.265 nM

Substance: anti-hSIRPα (clone REA144) (antibody)
- EC50 (hSIRPαV1(P74A) (human) [2]): > 4.79 nM
- EC50 (human SIRPβ1 (human) [3]): > 3.08 nM
- EC50 [4]: > 3.66 nM
- EC50 (human SIRPγ (human) [5]): 3.21 nM
- EC50 [6]: 2.15 nM
- EC50 (human SIRPβ1 (human) [7]): 4.53 nM
- EC50 [8]: 3.27 nM
- EC50 [9]: 5.24 nM

Substance: anti-hSIRPα (clone EPR16264) (antibody)
- EC50 (hSIRPαV1(P74A) (human) [2]): > 2 nM
- EC50 [4]: > 1.17 nM
- EC50 [8]: 2.45 nM

Substance: anti-hSIRPα (clone SE7C2) (antibody)
- EC50 (human SIRPγ (human) [10]): 1.52 nM
- EC50 [11]: 0.3 nM
- EC50 (hSIRPαV1(P74A) (human) [2]): > 6.14 nM
- EC50 [4]: > 7.01 nM
- EC50 [6]: 26.8 nM
- EC50 [9]: 1.27 nM

Substance: anti-hSIRPα (clone SE5A5) (antibody)
- EC50 (human SIRPγ (human) [10]): 0.2 nM
- EC50 [12]: 0.122 nM
- EC50 (human SIRPβ1 (human) [13]): 0.185 nM
- EC50 [11]: 0.186 nM
- EC50 [14]: 0.372 nM
- EC50 [15]: 0.26 nM
- EC50 [16]: 0.098 nM
- EC50 [17]: 0.226 nM
- EC50 [18]: 0.256 nM
- EC50 [19]: 0.3 nM
- EC50 [20]: 0.2 nM
- EC50 [21]: 0.327 nM
- EC50 [22]: 0.276 nM
- EC50 (hSIRPαV1(P74A) (human) [2]): 0.207 nM
- EC50 (human SIRPβ1 (human) [3]): 0.105 nM
- EC50 [4]: 0.156 nM
- EC50 (hSIRPαV1(P74A) (human) [23]): 0.149 nM
- EC50 [24]: 0.163 nM
- EC50 (hSIRP-VβC1γC2β (human)): 0.309 nM
- EC50 (hSIRP-VγC1βC2β (human)): 0.287 nM
- EC50 (human SIRPβ1 (human) [25]): 0.249 nM
- EC50 [26]: 0.224 nM
- EC50 [27]: 0.35 nM
- EC50 (hSIRP-VβC1βC2γ (human)): 0.231 nM
- EC50 (human SIRPγ (human) [1]): 0.168 nM
- EC50 (human SIRPβ1 (human) [28]): 0.192 nM
- EC50 [29]: 0.2 nM
- EC50 [30]: 0.304 nM
- EC50 (hSIRPαV1(P74A) (human) [31]): 0.15 nM
- EC50 (human SIRPβ1 (human) [32]): 0.156 nM
- EC50 [33]: 0.164 nM
- EC50 (hSIRPα-VαC1αC2β (human)): 0.127 nM
- EC50 (hSIRPα-VαC1βC2α (human)): 0.135 nM
- EC50 (hSIRPα-VβC1αC2α (human)): 0.121 nM
- EC50 (human SIRPβ1 (human) [34]): 0.18 nM
- EC50 [35]: 0.084 nM
- EC50 [36]: 0.117 nM

Substance: anti-hSIRPα (clone D6I3M) (antibody)
- EC50 (hSIRPαV1(P74A) (human) [2]): > 122 nM
- EC50 [4]: > 6.41 nM
- EC50 [8]: 8.76 nM
- EC50 [9]: 18.7 nM
